The record followed here is publication PMC4117788, “Structural dynamics of the two-component response regulator RstA in recognition of promoter DNA element” (Nucleic Acids Research, 2014).

Data set [1] concerns the target Klebsiella pneumoniae RstA N-terminal receiver domain (Klebsiella pneumoniae) (UniProt A6T8N1). Kind of data set: NMR line-widths; inactive kpRstA RD (without BeF3-) at high concentrations; data not shown.
Data set [2] concerns the target T1, kpRstA DBD (Klebsiella pneumoniae, UniProt A6T8N1 130-236).
T1 sequence: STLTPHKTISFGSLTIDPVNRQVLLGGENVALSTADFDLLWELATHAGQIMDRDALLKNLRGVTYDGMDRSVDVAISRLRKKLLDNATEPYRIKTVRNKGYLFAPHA
Kind of data set: ITC; sequential model, KD1 (first site); ITC 25 C: 20 mM Tris pH 7.5, 100 mM NaCl (DBD); plus 7 mM MgCl2 with or without 5.3 mM BeSO4 and 35 mM NaF (full-length). NMR of complex: 20 mM Na phosphate pH. As to conditions: protein: recombinant; tags: N-terminal M-6H-AMG; chain copies: 2. For orientation: Isothermal titration calorimetry measures the heat released or taken up as one component is titrated into another.

Data set [3] concerns the target T2, kpRstA full-length (Klebsiella pneumoniae, UniProt A6T8N1 1-239).
T2 sequence: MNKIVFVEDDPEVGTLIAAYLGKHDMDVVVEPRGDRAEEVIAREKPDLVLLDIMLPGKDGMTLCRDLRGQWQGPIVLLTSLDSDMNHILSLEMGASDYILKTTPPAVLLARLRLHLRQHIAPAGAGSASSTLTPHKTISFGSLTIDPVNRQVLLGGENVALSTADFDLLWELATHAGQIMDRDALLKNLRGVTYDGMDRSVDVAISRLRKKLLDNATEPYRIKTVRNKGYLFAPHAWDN
Kind of data set: ITC; without BeF3-, 7 mM MgCl2; sequential model, KD1; ITC 25 C: 20 mM Tris pH 7.5, 100 mM NaCl (DBD); plus 7 mM MgCl2 with or without 5.3 mM BeSO4 and 35 mM NaF (full-length). NMR of complex: 20 mM Na phosphate pH. Conditions: protein: recombinant; tags: His-tag removed by thrombin; N-terminal GSAMA remains; chain copies: 2.

Data set [4] concerns the molecule itself. The data set is described as follows: SEC; full-length kpRstA in the presence of BeF3-; data not shown. In general terms: Size exclusion chromatography separates by hydrodynamic size, large species first.
Data set [5] deals with kpRstA DBD R207A (Klebsiella pneumoniae, UniProt A6T8N1 130-236, R207A). Kind of data set: ITC; binding completely abolished; DNA-16a per Figure 1E legend (Table 1 says DNA-22); ITC 25 C: 20 mM Tris pH 7.5, 100 mM NaCl (DBD); plus 7 mM MgCl2 with or without 5.3 mM BeSO4 and 35 mM NaF (full-length). NMR of complex: 20 mM Na phosphate pH. As to conditions: protein: recombinant; tags: N-terminal M-6H-AMG; chain copies: 2.

In data set [6] the target is T1, kpRstA DBD. Kind of data set: ITC; one-site model, N = 1.05 (text gives error 0.54); ITC 25 C: 20 mM Tris pH 7.5, 100 mM NaCl (DBD); plus 7 mM MgCl2 with or without 5.3 mM BeSO4 and 35 mM NaF (full-length). NMR of complex: 20 mM Na phosphate pH. Conditions: protein: recombinant; tags: N-terminal M-6H-AMG; chain copies: 2.

The term stoichiometry N denotes the number of molecules, sites or subunits per partner or assembly. As usually defined, the Kd is the constant that tells how readily two partners part at equilibrium.

Molecule “Klebsiella pneumoniae RstA N-terminal receiver domain (from UniProt A6T8N1 1-119) (domain or fragment)” had a stoichiometry N in data set [1] of 2.

B1: DNA-22 (dsDNA)
DNA 1: GTTGTACATTCCGTTACTCCCT
DNA 2: AGGGAGTAACGGAATGTACAAC
Regarding B1, the Kd amounted to 10.3 ± 1.14 µM in data set [2] and 45.5 ± 8.41 µM in data set [3].

B2: full-length Klebsiella pneumoniae RstA (natural protein)
chain: GSAMAMNKIVFVEDDPEVGTLIAAYLGKHDMDVVVEPRGDRAEEVIAREKPDLVLLDIMLPGKDGMTLCRDLRGQWQGPIVLLTSLDSDMNHILSLEMGASDYILKTTPPAVLLARLRLHLRQHIAPAGAGSASSTLTPHKTISFGSLTIDPVNRQVLLGGENVALSTADFDLLWELATHAGQIMDRDALLKNLRGVTYDGMDRSVDVAISRLRKKLLDNATEPYRIKTVRNKGYLFAPHAWDN
notes: RstA response regulator of Klebsiella pneumoniae, full length (RD residues 1-119, DBD residues 131-236); Cloned in a modified pET32a(+) lacking the enterokinase site; also called kpRstA; full-length kpRstA; source: E. coli BL21(DE3), purified (Ni-NTA, Superdex-75 SEC, thrombin digestion); not shown: His-tag, N-terminal, cleaved
Turning to B2, in data set [4], the “stoichiometry N” value was 2.

B3: DNA-16a (dsDNA)
DNA 1: ACGTTGTACATTCCGT
DNA 2: ACGGAATGTACAACGT
As to B3, the binding result in data set [5] is listed as “no binding”. Further, in data set [6], the Kd was determined as 8.17 ± 0.53 µM.
